Substitutions are numbered along the chain they refer to.
B1: M7 (11B6) chimeric recombinant antibody (antibody, V domains shown)
VH: EVQLQQSGAELVRPGASVKLSCTVSGFNIKDDYMHWVKQRPEQGLEWIGWIDPENGDTEYASKFQGKATITADTSSNSAYLQLSSLTSEDTAVYYCTFIYYVNPHYYAMDYWGQGTSVTVSS
VL: QIVLTQSPAIMSASPGEKVTITCSATSSVSYMHWFQQKPGTSPKLWIYSTSNLASGVPARFSGSGSGTSYSLTISRVEAEDAATYYCQQRSSYPLTFGAGTKLELK
B2: Humanized antibody hAb-013 (antibody, V domains shown)
VH: EVQLVESGGGLVQPGGSLRLSCAASGFTFTDYYMDWVRQAPGKALEWVGFTRNKVNGDTTEYAASVKGRFTISRDDSKNSLYLQMNSLKTEDTAVYYCARDKGIAYYFDYWGQGTLVTVSS
VL: QIVLTQSPATLSASPGERATLSCRASSSVSYIHWYQQKPGQSPRPLIYGTSNLASGVPARFSGSGSGTDFTLTISSLEPEDAAVYYCQQWSSNLSTFGGGTKVEIK
notes: also called hM19-11
B3: Humanized antibody hAb-009 (antibody, V domains shown)
VH: B2 VH with D35N, V48L, T51I
VL: B2 VL with Q1E, S27Q, L46W, Y48H, S55T
notes: also called hM19-7
B4: Humanized antibody hAb-010 (antibody, V domains shown)
VH: B2 VH with T51I
VL: B2 VL with Q1E, L53R, S55T
notes: also called hM19-8
B5: Humanized antibody hAb-016 (antibody, V domains shown)
VH: B2 VH
VL: B2 VL with Q1E, A9G, A59D, S76R
notes: also called hM19-14
B6: Humanized antibody hAb-017 (antibody, V domains shown)
VH: B2 VH
VL: B2 VL with Q1E, T50A
notes: also called hM19-15
B7: Humanized antibody hAb-003 (antibody, V domains shown)
VH: B2 VH with Y33F, D35N, F50Q, T51M, A64E, K67E
VL: DIQMTQSPSSLSASVGDRVTITCRASSSVSYIHWYQQKPGKSPKPLIYGTSNLASGVPSRFSGSGSGTDFTLTISSLQPEDAATYYCQQWSSNLSTFGQGTKLEIK
notes: also called hM19-1
B8: Humanized antibody hAb-006 (antibody, V domains shown)
VH: B2 VH with D35N, A44G, V48L, T51I, A63S, D76I
VL: DIVLSQSPGTLSLSPGERATLSCRASSSVSYIHWYQQKPGQAPRPWIHGTSNLASGIPDRFSGSGSGTDYTLTISRLEPEDFAVYYCQQWSSNLSTFGGGTKVEIK
notes: also called hM19-4
B9: Humanized antibody hAb-005 (antibody, V domains shown)
VH: B2 VH with Y33T, D35S, T51I, A63S, A64D, K67E, D76N, S80T, K89R, T90A
VL: B7 VL with M4L, L46W, F70Y, L103V
notes: also called hM19-3
B10: M7 (11B6), mouse hybridoma antibody (antibody, V domains shown)
VH: B1 VH
VL: B1 VL
notes: Hybridoma supernatant, detected with anti-mouse Fc
B11: M17 (6A8), mouse hybridoma antibody (antibody, V domains shown)
VH: EVQLQQSGAELVRPGASVKLSCTASGFNIKDDYMHWVKQRPEQGLEWIGWIDPENGDTEYASKFQGKATITADTSSNTAYLLLSSLTSEDTAVYYCTTIYYYGSRGAMDYWGQGTSVTVSS
VL: B1 VL with T26S, S49T, N52T, S71F, V77M, Q88H
notes: as for B10
B12: M18 (7G1), mouse hybridoma antibody (antibody, V domains shown)
VH: QIQLVQSGPELKKPGETVKISCKASGYTFTTYGMTWVKQAPGKGLKWMGWINTYSGVPTYIDDFKGRFAFSLETSASTAYLQINNLKNEDTATYFCGRKDLLGFMDYWGQGTSVTVSS
VL: DIQMTQSPSSLSASLGGKVTITCKTSQDINKFMAWYQHKPGKGPRLLIRYTSTLQPGIPSRFSGSGSGRDYSFSIRNLEPEDIATYYCLQYDDLTWTFGGGTKLEI
notes: as for B10

What follows are binders tested against T1, CEACAM5 (CD66e) on tumour cells (human, UniProt P06731 35-685, glycosylated (natural, as on tumour cells)) (assay: flow cytometry on LS174T cells, anti-human IgG Fc-APC).
T1 construct: whole, on cells; One molecule for CEACAM5 on all three cell lines; the cell line is named under assay; also called natural CEACAM5 antigen; Lovo cells
T1 sequence (looked up): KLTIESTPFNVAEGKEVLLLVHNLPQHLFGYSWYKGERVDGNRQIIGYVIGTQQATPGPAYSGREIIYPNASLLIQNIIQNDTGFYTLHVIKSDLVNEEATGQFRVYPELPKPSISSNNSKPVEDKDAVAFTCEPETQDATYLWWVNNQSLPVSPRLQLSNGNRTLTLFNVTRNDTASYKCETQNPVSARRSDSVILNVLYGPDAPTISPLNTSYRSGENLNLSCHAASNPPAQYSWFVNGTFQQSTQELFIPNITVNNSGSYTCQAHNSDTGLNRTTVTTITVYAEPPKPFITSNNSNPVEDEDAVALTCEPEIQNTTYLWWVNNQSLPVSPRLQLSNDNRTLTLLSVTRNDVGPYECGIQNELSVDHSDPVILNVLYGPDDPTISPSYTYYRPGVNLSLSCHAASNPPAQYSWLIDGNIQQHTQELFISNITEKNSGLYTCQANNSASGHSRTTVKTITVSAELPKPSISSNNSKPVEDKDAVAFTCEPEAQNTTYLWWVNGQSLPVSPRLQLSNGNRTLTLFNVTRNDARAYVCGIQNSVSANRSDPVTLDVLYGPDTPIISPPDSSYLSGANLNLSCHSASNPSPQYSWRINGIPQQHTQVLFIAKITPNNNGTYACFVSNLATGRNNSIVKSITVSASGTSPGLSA
Procedure: (§1) After the cells were digested with TrypLE, they were centrifuged and resuspended in DPBS solution containing 2% BSA (FACS buffer solution, 4° C.), and added into a U-bottom 96-well plate, 5×10⁵/100 μl/well, and antibody diluted in concentration gradient was added, incubated at 4° C. for 1 hour, the supernatant was discarded after centrifugation; 100 μl of solution containing anti-human IgG Fc-APC secondary antibody was added and incubated at 4° C. for 1 hour, washing was performed once with FACS buffer, resuspending was performed in 200 μl FACS buffer, and the fluorescence signal value was read on BD Cantoll.
An EC50 of 1.9 mg/L was found for B1 in this work.

These binders were tested against T1, CEACAM5 (CD66e) on tumour cells (assay: flow cytometry on KATO3 cells, anti-human IgG Fc-APC).
Procedure: as §1
An EC50 of 2.6 mg/L was found for B1 in this work.

Target: T1, CEACAM5 (CD66e) on tumour cells
Assay: as above
Remark: another data set of the same source
Procedure: KATO3 cells (high expression of CEACAM5) were cultured in RPMI1640 medium containing 10% FBS. After the cells were digested with TrypLE trypsin, they were centrifuged and resuspended in DPBS solution containing 2% BSA (FACS buffer, 4° C.), and added to a U-bottom 96-well plate, 5×10⁵/100 μl/well, the antibody diluted in concentration gradient was added, incubated at 4° C. for 1 hour, the supernatant was discarded after centrifugation; 100 μl of solution containing anti-human IgG Fc-APC secondary antibody was added to each well and incubated at 4° C. for 1 hour, then washing was performed with FACS buffer once, resuspending was performed in 200 μl of FACS buffer, and the fluorescence signal value was read on BD C6 plus.
An EC50 of 12.7 mg/L and an Emax of 49.3% were found for B2 in this work.
An EC50 of 1.8 mg/L and an Emax of 109% were found for B3 in this work.
An EC50 of 1.3 mg/L and an Emax of 60.6% were found for B4 in this work.
An EC50 of 3.2 mg/L and an Emax of 48.4% were found for B5 in this work.
An EC50 of 2.2 mg/L and an Emax of 57.7% were found for B6 in this work.
An EC50 of 2.7 mg/L and an Emax of 85.1% were found for B7 in this work.
An EC50 of 5.7 mg/L and an Emax of 118% were found for B8 in this work.
An EC50 of 3250 mg/L and an Emax of 9.1% were found for B9 in this work.

Each binder was assayed against T2, recombinant CEACAM5 antigen (Sinobiological, 11077-H08H) (UniProt P06731 35-685) (assay: ELISA, coated recombinant CEACAM5-His 1 µg/ml, anti-human IgG Fc-HRP).
T2 construct: Bought protein; also called CEACAM5-His recombinant protein; CEACAM5-His antigen; not shown: His tag
T2 sequence (looked up): T1 sequence (looked up)
Procedure: The recombinant CEACAM5 antigen (Sinobiological, 11077-H08H) was diluted to 1 μg/ml with DPBS solution, added to a 96-well plate, 100 μl per well, and coated overnight at 2-8° C.; the coating solution was discarded, washing was performed twice with PBS solution, PBS solution containing 2% BSA was added, and blocked at room temperature for 2 hours; the blocking solution was discarded, the antibody diluted in concentration gradient was added, and incubated at 37° C. for 1 hour; the antibody solution was discarded, and washing was performed for 4 times with PBS solution containing 0.05% Tween 20 (PBST solution); anti-human IgG Fc-HRP secondary antibody was added and incubated at 37° C. for 30 minutes; washing was performed for 4 times with PBST solution, TMB chromogenic substrate was added, color development was performed for 5-10 minutes, and the reaction was terminated with equal volume of 1M H₂SO₄; the absorbance at 450 nm was read on a microplate reader.
An EC50 of 0.008 mg/L was found for B1 in this work.

These binders were tested against T1, CEACAM5 (CD66e) on tumour cells (assay: hybridoma supernatant on Lovo cells, anti-mouse Fc-FITC, Celigo imaging).
Procedure: Lovo cells and Lovo CEA KO cells were inoculated in 96-well plates, 10⁴ per well, and cultured overnight, 1-10 μl of hybridoma supernatant was added to Lovo/Lovo CEA KO cell culture plates, incubated for 1 hour, the supernatant was discarded, anti-mouse Fc-FITC fluorescent secondary antibody was added, incubated for 1 hour, the supernatant was discarded, DPBS solution containing 2% BSA was added, the fluorescent signals and FITC staining areas were read and analyzed in Celigo.
A Lovo binding percentage of 54.6% was found for B10 in this work.
A Lovo binding percentage of 34.7% was found for B11 in this work.
A Lovo binding percentage of 89.5% was found for B12 in this work.

Target: T2, recombinant CEACAM5 antigen …
Assay: ELISA, coated recombinant CEACAM5-His 1 µg/ml, anti-human IgG Fc-HRP
Remark: another data set of the same source
Procedure: Recombinant CEACAM5 antigen (Sinobiological, 11077-H08H) was diluted to 1 μg/ml with DPB S solution, add into a 96-well plate, 100 μl per well, and coated overnight at 2-8° C.; the coating solution was discarded, washing was performed twice with PBS solution, PBS solution containing 2% BSA was added, and blocking was performed at room temperature for 2 hours; the blocking solution was discarded, the humanized antibody diluted in concentration gradient was added, and incubated at 37° C. for 1 hour; the antibody solution was discarded, and washing was performed for 4 times with PBS solution containing 0.05% Tween 20 (PBST solution); the anti-human IgG Fc-HRP secondary antibody was added and incubated at 37° C. for 30 minutes; washing was performed for 4 times with PBST solution, TMB chromogenic substrate was added, and color development was carried out for 5-10 minutes, then the reaction was terminated by adding equal volume of 1M H₂SO₄; the absorbance at 450 nm was read on a microplate reader.
An EC50 of 6.1 mg/L was found for B2 in this work.
An EC50 of 2.87 mg/L was found for B3 in this work.
An EC50 of 3.56 mg/L was found for B4 in this work.
An EC50 of 4.32 mg/L was found for B5 in this work.
An EC50 of 7.05 mg/L was found for B6 in this work.
An EC50 of 3.69 mg/L was found for B7 in this work.
An EC50 of 3.11 mg/L was found for B8 in this work.
B9: no binding.

Each binder was assayed against T1, CEACAM5 (CD66e) on tumour cells (assay: competition by flow cytometry on KATO3 cells; competitor mouse M19 (m2F4) at 1 µg/ml, detected with anti-mouse IgG Fc-APC).
Procedure: KATO3 cells (high expression of CEACAM5) were cultured in RPMI1640 medium containing 10% FBS. After the cells were digested with TrypLE trypsin, they were centrifuged and resuspended in DPB S solution containing 2% BSA (FACS buffer, 4° C.), and added a U-bottom 96-well plate, 5×10⁵/100 μl/well, the mouse monoclonal antibody M19 antibody (m2F4) was added to 1 μg/ml and the humanized antibody diluted in gradient (50 μg/ml, 3-fold dilution) was added, then incubated at 4° C. for 1 hour, the supernatant was discarded after centrifugation; 100 μl of solution containing anti-mouse IgG Fc-APC secondary antibody was added to each well and incubated at 4° C. for 1 hour, washing was performed once with FACS buffer, resuspending was performed in 200 μl FACS buffer, and the fluorescence signal value was read on BD C6 plus.
In the case of B2, the “Emax Inhibition, %” value is reported as 89% and the IC50 is reported as 5.2 mg/L.
B3 was tested, and the “Emax Inhibition, %” value was 62.7% and the IC50 was 2.7 mg/L.
With B4 the “Emax Inhibition, %” value was 75% and the IC50 was 2.3 mg/L.
With B5 the “Emax Inhibition, %” value was 73.2% and the IC50 was 6.4 mg/L.
For B6, the “Emax Inhibition, %” value was 73.9% and the IC50 was 4.5 mg/L.
For B7, the “Emax Inhibition, %” value was 51.3% and the IC50 was 3.9 mg/L.
For B8, the “Emax Inhibition, %” value was 47.2% and the IC50 was 6.9 mg/L.

— patent publication US20230331862A1 (SHANGHAI GENBASE BIOTECHNOLOGY, published 2023)
